Results: patent US20250313631A1 (HUMMINGBIRD BIOSCIENCE PTE, published 2025)
Values belong to the binder of their own block, whether it stands above or below them.

Legend:
human B7H4 = target: T1, human B7H4 (human, UniProt Q7Z7D3 25-258, limits assumed); experiment: ELISA, plate coated with the antigen
T1 construct: also called VTCN1
T1 sequence (looked up): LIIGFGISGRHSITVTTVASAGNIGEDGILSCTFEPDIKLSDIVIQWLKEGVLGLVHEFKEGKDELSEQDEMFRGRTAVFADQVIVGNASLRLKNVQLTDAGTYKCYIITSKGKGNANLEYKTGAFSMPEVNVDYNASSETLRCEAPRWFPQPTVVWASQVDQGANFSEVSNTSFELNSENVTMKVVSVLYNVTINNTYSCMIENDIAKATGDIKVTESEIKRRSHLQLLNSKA

[1] = target: T2, recombinant human VISTA (His-tagged) (human, UniProt Q9H7M9 33-194); experiment: BLI (Octet), 1:1 global fit, His-tagged human VISTA captured
T2 construct: bought soluble protein (Sino Biological); also called hVISTA; human VISTA polypeptide

VISTA-Fc = target: T3, VISTA-Fc (UniProt Q9H7M9 33-194); experiment: competition ELISA: VISTA-Fc coated, VSIG3-His 0.3 ug/ml as the blocked ligand, anti-His-HRP detection
T3 construct: also called VISTA-Ig; not shown: Fc/Ig part not described

[2] = target: T2, recombinant human VISTA (His-tagged); experiment: antigen-binding ELISA; HMBD-002 10 mg/mL in F9, day 0
[3] = target: T2, recombinant human VISTA (His-tagged); experiment: antigen-binding ELISA; HMBD-002 in F2, day 30 at 40°C
[4] = target: T2, recombinant human VISTA (His-tagged); experiment: antigen-binding ELISA; HMBD-002 in F8, day 20 at 40°C
[5] = target: T2, recombinant human VISTA (His-tagged); experiment: antigen-binding ELISA; HMBD-002 in F8, day 30 at 40°C
human CTLA4 = human CTLA4 (human, UniProt P16410 36-162); experiment: ELISA, plate coated with human CTLA-4, antibody titrated
[6] = target: T2, recombinant human VISTA (His-tagged); experiment: antigen-binding ELISA; reference standard run with the day 20 samples
[7] = target: T2, recombinant human VISTA (His-tagged); experiment: ELISA on coated human VISTA, antibody diluted in buffer of pH 7

binding result (human B7H4): no binding (tested: log -7.5 M)
Kd [1]: < 1 pM
koff [1]: < 1e-07 s⁻¹
kon [1]: 128000 M⁻¹ s⁻¹
IC50 (read off the curve) (VISTA-Fc): ~4 nM
B1: anti-VISTA clone 4M2-C12 IgG1 (antibody)
heavy: not shown
light: DIVITQTPAILSTSPGEKVTMTCRASSSVGYIHWYQQKPGSSPKPWIYATSNLASGVPARFSGSGSGTSNSLTITRVEAEDAATYYCQQWSSYPPITFGGGTKLEVKRTVAAPSVFIFPPSDEQLKSGTASVVCLLNNFYPREAKVQWKVDNALQSGNSQESVTEQDSKDSTYSLSSTLTLSKADYEKHKVYACEVTHQGLSSPVTKSFNRGEC
notes: mouse variable regions on human IgG1/kappa constant regions; also called V4; V4pr

EC50 [2]: 0.0315 nM
EC50 [3]: 0.0202 nM
EC50 [4]: 0.0248 nM
EC50 [5]: 0.0227 nM
binding result (human CTLA4): no binding (tested: about 3e-8 M)
EC50 [6]: 0.0355 nM
EC50 [7]: 0.0343 nM
B2: V4-C26 hIgG4 (antibody)
heavy: not shown
light: EIVLTQSPATLSLSPGERATLSCRASSSVGYIHWYQQKPGQAPRPIIYTTSNRATGIPARFSGSGSGTDNTLTISSLEPEDSAVYYCQQWSSYPPITFGGGTKLEVKRTVAAPSVFIFPPSDEQLKSGTASVVCLLNNFYPREAKVQWKVDNALQSGNSQESVTEQDSKDSTYSLSSTLTLSKADYEKHKVYACEVTHQGLSSPVTKSFNRGEC
notes: human IgG4 (S228P)/kappa format; also called HMBD-002; HMBD-002-V4C26
